This is an account of results in patent publication US20040253673A1.

Some results are limits rather than exact numbers.

Assay [1] has as its target Crotalus durissus terrificus (C.d.t.) venom. Description: ELISA, C.d.t. venom coat, 1:5.
For assay [2] the target is unchanged. Description: ELISA, C.d.t. venom coat, 1:125. On the technique in general: An ELISA detects its analyte on a solid surface through an enzyme-linked reagent.
Assay [3] shares this target. Description: ELISA, C.d.t. venom coat, 1:625.
Assay [4] shares this target. Description: ELISA, C.d.t. venom coat, 1:312,500.
For assay [5] the target is unchanged. Description: ELISA, C.d.t. venom coat, 1:125. This is another data set of the same source.
For assay [6] the target is unchanged. Description: ELISA, C.d.t. venom coat, 1:625. The source holds these as a separate data set.
Assay [7] shares this target. Description: ELISA, C.d.t. venom coat, 1:62,500.
Assay [8] shares this target. Description: ELISA, C.d.t. venom coat, undiluted.
The target is the same in assay [9]. Description: ELISA, C.d.t. venom coat, 1:3125.
For assay [10] the target is unchanged. Description: ELISA, C.d.t. venom coat, 1:25.
Assay [11] has the same target. Description: ELISA, C.d.t. venom coat, 1:3125. The source holds these as a separate data set.
Assay [12] has the same target. Description: ELISA, C.d.t. venom coat, 1:25. This is another data set of the same source.

Take preimmune IgY (antibody): the ELISA absorbance in [1] is under 0 OD; in [2], under 0 OD; in [3], 0 OD; in assay [4] it was 0.01 OD; in assay [5], 0.003 OD; in assay [6], under 0 OD. In addition, the ELISA absorbance in assay [7] was 0.001 OD; in [8] it was 0.003 OD; in assay [9], 0.002 OD; in assay [10], 0.016 OD; in [11], under 0 OD; in [12], 0 OD.
